PMC8597880

Assays:
Experiment in all cases: BLI
[1] = molecular target: recombinant SARS-CoV-2 RBD B.1.351/K417N, E484K, N501Y (SARS-CoV-2, B.1.351 (Beta), RBD K417N, E484K, N501Y)
[2] = molecular target: recombinant SARS-CoV-2 RBD B.1.617.2/L452R, T478K (SARS-CoV-2, B.1.617.2 (Delta), RBD L452R, T478K)
[3] = molecular target: recombinant SARS-CoV-2 RBD P.1/K417T, E484K, N501Y (SARS-CoV-2, P.1 (Gamma), RBD K417T, E484K, N501Y)
[4] = molecular target: recombinant SARS-CoV-2 RBD B.1.1.7/N501Y (SARS-CoV-2, Alpha (B.1.1.7) RBD with N501Y)

NIH-CoVnb-112 (VHH)
Kd [1]: 4.28 nM | Kd [2]: 1.66 nM | Kd [3]: 4.16 nM | Kd [4]: 3 nM
